Measured values published in US11517583B2, “Trans-splicing RNA (tsRNA)” (NATIONAL UNIVERSITY OF SINGAPORE, priority 2016, dated 2022).

B1: 3ER_ΔBD-opt: parental 3′ exon replacement tsRNA construct; unstructured 50 base BD to AFP intron 5 with two mismatches, HSVtk (nucleic acid)
DNA: GCTAGCACCTCTCTAAACCTAAATTAAATTTTCTTCTCTAAACCTCTTTCCTAGTTGGACTGACGTCACTCAGTCCTCCTCCTCAGC
B2: p5ER_ΔBD-opt_HH: parental 5′ exon replacement tsRNA construct; unstructured mismatched BD to AFP intron 3, HSVtk, active hammerhead ribozyme (nucleic acid)
DNA: GGTACCCCTCCTTCCTCCTCCTCCTCCTCCTCCTCCTATATACATATACACACACACACACACTCATACCACATTTCAGACATAAAT

Tests used:
[1] = system: AFP pre-mRNA (AFP_E3-E6 mini-gene); experiment: real-time RT-PCR (TaqMan) quantification of trans-splicing towards over-expressed AFP mini-gene in HepG2 cells; assay type: cell-based, human; conditions: 3′ER, HepG2 co-transfected with AFP mini-gene vector, 24 hours post transfection
Description: Transfection of plasmid DNAs: HepG2 cells were transfected at ˜70-90% confluency in a 6-well plate for Western blotting, 12-well for FACS analyses and 24-well plate for all other analyses using either Lipofectamine 3000 (for FACS studies only) or Lipofectamine 2000, (Life Technologies) according to manufacturer's protocol. A total of 1 μg DNA was co-transfected or transfected in a 24-well plate format (500 ng:500 ng of ts construct: AFP_E3_E6 minigene) in over-expression studies and 1 μg of ts constructs only in endogenous studies. For 12-well and 6-well formats, the amount of total DNA was scaled up to 2 μg and 4 μg respectively. For FACS experiments, either 500 ng of pEGFP-C2 plasmid was co-transfected along with the ts and AFP mini-gene vectors to perform experiments with some 3′ER and 5′ER plasmids and dumbbells, or the GFP infused ts vectors were used along with/without AFP mini-gene for over-expression and endogenous studies respectively.
Total RNA Isolation: RNA was isolated 24 hours post-transfection using RNeasy plus kit (Qiagen) following the manufacturer's protocol. RNA concentrations were measured using NanoDrop 2000.
cDNA conversion and real-time RT-PCR: 500 ng RNA from all samples was converted into cDNA using the First Strand SuperScript RTIII (Invitrogen) kit with 200 ng of random hexamers and 10 uM of dNTPs. The reaction conditions were 25° C. for 5 min, followed by 50° C. for 2 h and enzyme inactivation at 70° C. for 15 min. 20 ng of cDNA was used as template for real time RT-PCR. TaqMan quantification was performed in ABI 7900HT of the cDNAs by designing specific probe and primer sets for each cis- and trans-splicing detection. One set of probes were designed in the AFP regions; namely AFP probe exon 5 and AFP probe exon 4 to detect 3′ER and 5′ER cis and trans-splicing respectively. Primers to detect 3′ER cis-splicing along with AFP probe were FP afp exon 5 (set1) and RP afp exon 6 and for 3′ER trans-splicing were FP afp exon 5 (set1) and RP HSVtk. Primers to detect 5′ER cis-splicing along with AFP probe were FP afp exon 3 and RP afp exon 4 (set1) and for 5′ER trans-splicing were FP HSVtk (set1) and RP afp exon 4 (set1). Another set of probes were designed in the distal HSVtk region to detect 3′ER, named HSVtk probe for 3′ER and proximal HSVtk region to detect 5′ER, named HSVtk probe for 5′ER trans-splicing alone. The primers to detect 3′ER trans-splicing along with HSVtk probes were FP afp exon 5 (set2) and RP HSVtk. Primers to detect 5′ER trans-splicing along with HSVtk probes were FP HSVtk (set2) and RP afp exon 4 (set2). The number of cycles in over-expression studies and endogenous studies were 40 and 50 respectively. RT-PCR: Reverse transcription PCR was performed on the cDNA samples using Taq DNA polymerase (Fermentas) with […] of two-step PCR (30+30 cycles or 35+35 cycles) to detect 3′ and 5′ cis and trans-splicing and the bands were visualized on a 1% agarose gel. The primers used to detect 3′ER cis-splicing and mock were FP afp exon 5 (set1) and RP afp exon 6, to detect 3′ER trans-splicing were FP afp exon 5 (set1) and RP HSVtk. To detect 5′ER cis-splicing and mock were primers FP afp exon 3 and RP afp exon 4 (set1), to detect 5′ER trans-splicing were primers FP HSVtk (set1) and RP afp exon 4 (set1). […]

[2] = system: HHRz cleavage motif at tsRNA 3′ end; experiment: stem-loop primer based rt-RT-PCR of hammerhead ribozyme (HHRz) cleavage; assay type: cell-based
Text: FIG. 3 Improved stability at 3′ end of the RNA improves 5′ trans-splicing in correlation with cleavage of hammerhead ribozyme. […] 145. The conserved motifs of stem Ia, Ib and II are highlighted in boxes and stem Ill is designed as a perfect complement to the 3′ end of the ΔBD to make the HH Rz structure. Cleavage motif GUC is shown with a scissor icon. […] R2, correlation coefficient. n=3, linear regression analysis.
That was surprising as the uncleaved RNA comprises a polyA tail and is expected to be exported to the cytoplasm thereby lowering its nuclear concentration and the rate of trans-splicing. We investigated HHRz cleavage by quantifying the cleaved RNA 3′ end using stem-loop primer based rt-RT-PCR (FIG. 3a). This method was proven to efficiently discriminate between perfect primer-matching and extended RNA 3′ ends. The observed 6.2 cycle difference indicated a ribozyme cleavage rate above 90% yielding trans-splicing RNA with an unstructured 3′ terminal BD (FIG. 3a). Unstructured ends of antisense RNA have been reported to be associated with both fast target binding and degradation. […]

Row | Molecule | more potent (trans-splicing) than 3ER_BD-struc1 [1] [fold] | stronger trans-splicing compared with 3ER_ΔBD-opt-inv [1] [fold] | more potent (trans-splicing) than 3ER_BD-struc2 ([1]; p=0.04) [fold] | stronger trans-splicing compared with 3ER_BD-opt ([1]; p=0.04) [fold] | stronger trans-splicing compared with 3ER_BD-opt-inv ([1]; p=0.04) [fold] | ribozyme cleavage rate ([2]; indicated by the cycle difference) | cycle difference, cleaved RNA 3′ end (active versus inactive HHRz motif) ([2]; stem-loop primer rt-RT-PCR) [cycle]
1 | B1 | 4 | 3 | 6 | 4 | 30 |  | 
2 | B2 |  |  |  |  |  | above 90% | 6.2
